In patent US8637043B2, “Compositions useful as ligands for the formyl peptide receptor like 1 receptor and methods of use thereof” (Chemocentryx, Inc., priority 2001, dated 2014):
Ends that are not written are not given here.

Assays:
human FPRL1 = biological target: T1, human FPRL1 (Homo sapiens, UniProt P25090); experiment: Calcium flux in FPRL1-L1.2 transfectants; assay type: cell-based; details: for Designation and FPRL1 Activity: qualitative rating high, moderate, low, see Example 9; for Notes: activity: qualitative rating, Table 6; for calcium release / mobilization: FPRL1 expressing L1.2 cells
T1 construct: Full length cDNA encoding FPRL1 was cloned, using the polymerase chain reaction (PCR), from genomic DNA isolated from undifferentiated HL-60 cells; expressed in transfected cells; linearized FPRL1/pcDNA3.1, electroporation
T1 sequence (P25090 1-351): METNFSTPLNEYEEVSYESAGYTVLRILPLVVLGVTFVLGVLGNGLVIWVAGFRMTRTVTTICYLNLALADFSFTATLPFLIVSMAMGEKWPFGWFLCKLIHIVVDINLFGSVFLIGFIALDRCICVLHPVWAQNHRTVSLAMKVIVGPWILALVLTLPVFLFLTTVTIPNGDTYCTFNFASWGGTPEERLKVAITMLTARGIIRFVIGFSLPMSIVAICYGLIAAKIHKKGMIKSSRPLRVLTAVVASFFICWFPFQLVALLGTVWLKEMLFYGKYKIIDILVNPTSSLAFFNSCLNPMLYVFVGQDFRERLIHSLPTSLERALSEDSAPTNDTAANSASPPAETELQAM
Protocol: (§1) Ca^2+ mobilization responses were performed using the intracellular ratiometric fluorescent dye, lndo-1. Cells were loaded with Indo-1/AM (3 μM; Molecular Probes, Eugene, Oreg.) in culture medium (45 min, 20° C., 10^7 cells/ml). After dye loading, cells were washed once with 10 ml PBS) and resuspended at 10^6 cell/ml in HBSS containing 1% FBS. Cytosolic [Ca^2+] release was determined using excitation at 350 nm using a Photon Technology International fluorimeter (excitation at 350 nm, ratioed dual emission at 400 and 490 nm).
The functional activities of CKβ8-1 (25-116) were investigated in human FPRL1-L1.2 transfectants and in native L1.2 cells. Stable expression of formyl peptide-like receptor 1 (FPRL1) in L.1.2 cell was obtained as follows. Full length cDNA encoding FPRL1 was cloned, using the polymerase chain reaction (PCR), from genomic DNA isolated from undifferentiated HL-60 cells. […] Twenty micrograms of the FPRL1/pcDNA3.1 construct were linearized by digestion with Bsm1 (New England Biolabs, Beverly, Mass.) and used to transfect the murine B cell line L1.2 as follows. Twenty five million cells were washed twice and resuspended in 0.8 ml of PBS. The cells were incubated for 10 min at room temperature with the linearized FPRL/pcDNA3.1 construct DNA and transferred to a 0.4-cm cuvette, and a single electroporation pulse was applied at 250 V, 960 μF. Electroporated cells were incubated for 10 min at room temperature and transferred to culture at 37° C. in RPMI supplemented with 10% FCS. Geneticin (G418) was added to a final concentration of 800 μg/ml 48 h posttransfection and the cells plated into 96-well plates at 25,000 cells/well. After 2-3 weeks under drug selection, stable geneticin-resistant FPLR1 expressing cells were assessed for their ability to mobilize Ca^++ in response to SHAAGtide or CKbeta 8-1 at concentrations of 1 to 1000 nM.
A calcium flux test was performed on these transfectants using the method described in Example 1.
Stable expression of human FPRL1 in L1.2 cells was obtained as in Example 6. Calcium flux tests were conducted on the transfectants using the method described in Example 1. Chemokines (CKβ8(1-99), CKβ8(25-99), CKβ8-1(1-116) and CKβ8-1(25-116), were prepared as in Example 1. W peptides 1 and 2 were obtained as in Example 6. In addition, and the following SHAAGtide sequences and truncated variants (prepared as in Example 8) were tested:
All ligands were added in a dose response manner and the peak calcium flux response determined.

mature Dendritic Cells = experiment: Calcium mobilization, mature dendritic cells; assay type: cell-based, human
Protocol: Human recombinant CKβ8-1(25-116) chemokine was obtained from R&D Systems (Minneapolis, Minn.). The peptide SHAAGtides SEQ ID NO:1 and SEQ ID NO:6 and a control protein (the reverse sequence of SEQ ID NO:1) were synthesized and HPLC-purified using routine techniques as described in Sambrook et al., 1989, and Ausubel et al., 1999.
Immature DCs were derived by culturing CD14+ monocytes in the presence of GM-CSF and IL4. Briefly, monocytes were cultured in a T-175 flask at 10^6 cells/ml in RPMI/10% FCS. Recombinant human GM-CSF and IL4 were added on day 0, 2, 4 and 6 to a final concentration of 1000 u/ml and 500 u/ml, respectively. Cells were harvested on day 7 as immature DCs and characterized for surface protein expression by FACS analysis. DC maturation was carried out by culturing day 6 immature DCs in macrophage-conditioned medium (MCM). Briefly, day 6 immature DCs were harvested by centrifugation and resuspended in MCM at 10^6 cells/ml. The medium was supplemented with 1000 u/ml of GM-CSF and 500 u/ml IL4. After three more days of culture, cells were harvested as mature DCs and characterized by surface protein expression flow cytometry.
MCM was prepared as follows: PBMCs isolated from buffy coat were incubated at 37° C. in a plastic flask pre-coated with 10 mg/ml human IgG (Sigma, St Louis, Mo.) for 30 minutes. After 30 minutes, non-adherent cells were removed and adherent cells were washed three times with DPBS, then cultured in RPMI/10% human serum. Conditioned-medium was collected after 24 hours. TNF-α concentration, which is critical for DC maturation, was determined by using a TNF-α ELISA kit (R&D Systems, Minn.). The final TNF-α level in MCM was adjusted to 50 u/mi by mixing with RPMI/10% human serum, and was stored at −80 freezer until use.
as §1, with “an” for “the”, “Indo-1.” for “lndo-1.”, “Probes (Eugene, Oreg.))” for “Probes, Eugene, Oreg.)”, “cells/mi).” for “cells/ml).”, “(10” for “with 10”

neutrophils = experiment: Cross-desensitization with leukotactin, neutrophils; assay type: cell-based, human
Protocol: In cross-desensitization tests tests, cells were stimulated sequentially with leukotactin and then the chemokines CKβ8(1-99), CKβ8(25-99), CKβ8-1(1-116), and CKβ8-1(25-116). On HEK293-CCR1 transfectants (prepared as in Example 1), leukotactin induced similar patterns of receptor desensitization to all variants.
Similar receptor cross-desensitization tests were performed using both monocytes and neutrophils (prepared as in Example 2).

## MLWRRKIGPQMTLSHAAG [SEQ ID NO: 1]
Human FPRL1
  Designation and FPRL1 Activity: high
  Notes: activity: high
Mature Dendritic Cells
  calcium flux: partially active

## MLWRRKIGPQMTLSHAAY [SEQ ID NO: 6]
Human FPRL1
  Designation and FPRL1 Activity: high
  Notes: activity: high
Mature Dendritic Cells
  calcium flux: partially active

B1: CKβ8(25-99): known truncated CKβ8 variant, human recombinant chemokine from R&D Systems (protein, listed as Homo sapiens)
chain: RFHATSADCCISYTPRSIPCSLLESYFETNSECSKPGVIFLTKKGRRFCANPSDKQVQVCMRMLKLDTRIKTRKN
neutrophils
  desensitization by leukotactin prestimulation: inactive

B2: CKβ8-1(25-116): novel NH2-terminal truncated form of CKβ8-1, SEQ ID NO: 16, human recombinant chemokine (protein, listed as Homo sapiens)
chain: MLWRRKIGPQMTLSHAAGFHATSADCCISYTPRSIPCSLLESYFETNSECSKPGVIFLTKKGRRFCANPSDKQVQVCMRMLKLDTRIKTRKN
neutrophils
  desensitization by leukotactin prestimulation: did not desensitize
Human FPRL1
  calcium release / mobilization: stimulated calcium release
Human FPRL1; listed as CKβ8(25-116)
  calcium release / mobilization: induced calcium mobilization
Mature Dendritic Cells
  calcium flux: partially active

B3: CKβ8-1(1-116): alternatively spliced form of CKβ8, 116 amino acids, human recombinant chemokine (protein, listed as Homo sapiens)
chain: RVTKDAETEFMMSKLPLENPVLLDMLWRRKIGPQMTLSHAAGFHATSADCCISYTPRSIPCSLLESYFETNSECSKPGVIFLTKKGRRFCANPSDKQVQVCMRMLKLDTRIKTRKN
neutrophils
  desensitization by leukotactin prestimulation: inactive
Human FPRL1
  calcium release / mobilization: no activity
Human FPRL1; listed as CKβ8(1-116)
  calcium release / mobilization: did not give significant mobilization
